Strand notation (5' to 3'): a small letter for the sugar, then the base; units joined by * are phosphorothioate-linked, units joined directly phosphodiester-linked; [ ] holds rarer units or linkages, { } end groups; capitals alone tell only the bases. m = 2'-O-methyl; r = 2'-OH (RNA)
Columns and labels:
TTR [1] = experiment: EC50 and maximum editing in primary cyno hepatocytes treated with LNP formulated U-depleted Spy Cas9 mRNA and sgRNAs (Tables 20, 22); type: cell-based, cynomolgus monkey; design: key: % of sequence reads with indels or substitutions over total reads; details: Table 20, LNP with U-depleted Spy Cas9 mRNA and human specific sgRNAs, dose response
In short: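 Primary cyno hepatocytes plated 24 h before treatment with cross-flow LNPs (PD-10 purified) carrying U-depleted Spy Cas9 mRNA and sgRNA, preincubated 5 min in maintenance medium with 6% cyno serum; 8-point 3-fold dose series from 300 ng mRNA. Cells lysed 72 h later; editing = indel/substitution reads over total reads by amplicon MiSeq sequencing.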

TTR [2] = experiment: TTR editing in primary human hepatocytes transfected with Spy Cas9 protein and sgRNAs (Table 12); type: cell-based; details: primary human hepatocytes transfected with Spy Cas9 protein (RNP) and sgRNAs
Protocol: Primary liver hepatocytes. Primary human liver hepatocytes (PHH) and primary cynomolgus liver hepatocytes (PCH) (Gibco) were cultured per the manufacturer's protocol (Invitrogen, protocol 11.28.2012). In brief, the cells were thawed and resuspended in hepatocyte thawing medium with supplements (Gibco, Cat. CM7000) followed by centrifugation at 100 g for 10 minutes for human and 80 g for 4 minutes for cyno. The supernatant was discarded and the pelleted cells resuspended in hepatocyte plating medium plus supplement pack (Invitrogen, Cat. A1217601 and CM3000). Cells were counted and plated on Bio-coat collagen I coated 96-well plates (ThermoFisher, Cat. 877272) at a density of 33,000 cells/well for human or 60,000 cells/well for cyno (or 65,000 cells/well when assaying effects on TTR protein, described further below). Plated cells were allowed to settle and adhere for 6 or 24 hours in a tissue culture incubator at 37° C. and 5% CO2 atmosphere. After incubation cells were checked for monolayer formation and media was replaced with hepatocyte culture medium with serum-free supplement pack (Invitrogen, Cat. A1217601 and CM4000).
[…] formation was performed prior to electroporation or transfection of Spy Cas9 protein loaded with guide RNAs (RNPs) onto cells. For dual guide (dgRNAs), individual crRNA and trRNA was pre-annealed by mixing equivalent amounts of reagent and incubating at 95° C. for 2 min and cooling to room temperature. Single guide (sgRNAs) were boiled at 95° C. for 2 min and cooling to room temperature. The boiled dgRNA or sgRNA was incubated with Spy Cas9 protein in Optimem for 10 minutes at room temperature to form a ribonucleoprotein (RNP) complex.
For RNP lipoplex transfections, cells were transfected with Lipofectamine RNAiMAX (ThermoFisher, Cat. 13778150) per the manufacturer's protocol. Cells were transfected with an RNP containing Spy Cas9 (10 nM), individual guide (10 nM), tracer RNA (10 nM), Lipofectamine RNAiMAX (1.0 μL/well) and OptiMem. RNP formation was performed as described above.
Transfected cells were harvested post-transfection at 24, 48, or 72 hours. The genomic DNA was extracted from each well of a 96-well plate using 50 μL/well BuccalAmp DNA Extraction solution (Epicentre, Cat. QE09050) per manufacturer's protocol. All DNA samples were subjected to PCR and subsequent NGS analyses, as described herein.
To quantitatively determine the efficiency of editing at the target location in the genome, sequencing was utilized to identify the presence of insertions and deletions introduced by gene editing.
Primers were designed around the target site within the gene of interest (e.g. TTR), and the genomic area of interest was amplified.
Additional PCR was performed per the manufacturer's protocols (Illumina) to add chemistry for sequencing. The amplicons were sequenced on an Illumina MiSeq instrument. The reads were aligned to a reference genome (e.g., the human reference genome (hg38), the cynomologus reference genome (mf5), the rat reference genome (rn6), or the mouse reference genome (mm10)) after eliminating those having low quality scores. The resulting files containing the reads were mapped to the reference genome (BAM files), where reads that overlapped the target region of interest were selected and the number of wild type reads versus the number of reads which contain an insertion, substitution, or deletion was calculated.
The editing percentage (e.g., the “editing efficiency” or “percent editing” or “indel frequency”) is defined as the total number of sequence reads with insertions/deletions (“indels”) or substitutions over the total number of sequence reads, including wild type.
Guides in modified sgRNA format targeting human and/or cyno TTR were delivered to primary human hepatocytes and primary cyno hepatocytes as described in Example 1. […]

TTR [3] = experiment: EC50 and maximum editing in primary human hepatocytes treated with LNP formulated U-depleted Spy Cas9 mRNA and sgRNAs (Tables 19, 21); type: cell-based; design: key: % of sequence reads with indels or substitutions over total reads; details: Table 19, LNP with U-depleted Spy Cas9 mRNA and human specific sgRNAs, dose response
In short: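 Primary human hepatocytes, plated 24 h, received LNPs carrying Cas9 mRNA plus TTR sgRNA, preincubated 5 min in media with 6% cyno serum, in an 8-point 3-fold series starting at 300 ng mRNA; lysed 72 h later; editing determined as indel/substitution read fraction by amplicon MiSeq sequencing.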

human TTR sequence = experiment: Liver editing in humanized TTR mice dosed with LNP formulations (Table 26); type: in vivo, mouse
[4] = 1, 0.3, 0.1, or 0.03 mg/kg, Cas9 mRNA (SEQ ID NO: 1) 1:1 by weight to guide, FIG. 26A
[5] = 1, 0.3, or 0.1 mg/kg, Cas9 mRNA (SEQ ID NO: 1) 1:1 by weight to guide, FIG. 27A
[6] = 1, 0.3, or 0.1 mg/kg, Cas9 mRNA (SEQ ID NO: 1) 1:2 by weight to guide, FIG. 28A

B1: G000488: TTR sgRNA modified sequence, Human, SEQ ID No. 95; guide sequence of CR003346 (nucleic acid)
guide: mA*mA*mA*rGrUrUrCrUrArGrArUrGrCrUrGrUrCrCrGrGrUrUrUrUrArGrAmGmCmUmAmGmAmAmAmUmAmGmCrArArGrUrUrArArArArUrArArGrGrCrUrArGrUrCrCrGrUrUrArUrCrAmAmCmUmUmGmAmAmAmAmAmGmUmGmGmCmAmCmCmGmAmGmUmCmGmGmUmGmCmU*mU*mU*mU
- Max Editing (TTR [1]): 21.63
- Avg % Deletion (TTR [2]): 35.00%
- Avg % Edit (TTR [2]): 61.27%
- Avg % Insert (TTR [2]): 26.30%
- Max Editing (TTR [3]): 95.83
- Liver editing, dose response (human TTR sequence; [4]): A dose response for both editing and serum TTR levels was evident

B2: G000489: TTR sgRNA modified sequence, Human, SEQ ID No. 96; guide sequence of CR003344 (nucleic acid)
guide: mU*mU*mU*rGrArCrCrArUrCrArGrArGrGrArCrArCrUrGrUrUrUrUrArGrAmGmCmUmAmGmAmAmAmUmAmGmCrArArGrUrUrArArArArUrArArGrGrCrUrArGrUrCrCrGrUrUrArUrCrAmAmCmUmUmGmAmAmAmAmAmGmUmGmGmCmAmCmCmGmAmGmUmCmGmGmUmGmCmU*mU*mU*mU
- Max Editing (TTR [1]): 89.21
- Avg % Deletion (TTR [2]): 9.43%
- Avg % Edit (TTR [2]): 60.17%
- Avg % Insert (TTR [2]): 51.07%
- Max Editing (TTR [3]): 86.33
- Liver editing, dose response (human TTR sequence; [4]): A dose response for both editing and serum TTR levels was evident

B3: G000482: TTR sgRNA modified sequence, Human, SEQ ID No. 89; guide sequence of CR003365 (nucleic acid)
guide: mU*mG*mU*rArGrArArGrGrGrArUrArUrArCrArArArGrGrUrUrUrUrArGrAmGmCmUmAmGmAmAmAmUmAmGmCrArArGrUrUrArArArArUrArArGrGrCrUrArGrUrCrCrGrUrUrArUrCrAmAmCmUmUmGmAmAmAmAmAmGmUmGmGmCmAmCmCmGmAmGmUmCmGmGmUmGmCmU*mU*mU*mU
- Max Editing (TTR [1]): 97.47
- Avg % Deletion (TTR [2]): 10.10%
- Avg % Edit (TTR [2]): 66.67%
- Avg % Insert (TTR [2]): 56.57%
- Max Editing (TTR [3]): 97.02
- Liver editing, dose response (human TTR sequence; [5]): A dose response for both editing and serum TTR levels was evident

B4: G000480: TTR sgRNA modified sequence, Human, SEQ ID No. 87; guide sequence of CR003353 (nucleic acid)
guide: mA*mA*mA*rGrGrCrUrGrCrUrGrArUrGrArCrArCrCrUrGrUrUrUrUrArGrAmGmCmUmAmGmAmAmAmUmAmGmCrArArGrUrUrArArArArUrArArGrGrCrUrArGrUrCrCrGrUrUrArUrCrAmAmCmUmUmGmAmAmAmAmAmGmUmGmGmCmAmCmCmGmAmGmUmCmGmGmUmGmCmU*mU*mU*mU
- Max Editing (TTR [1]): 20.32
- Avg % Deletion (TTR [2]): 4.70%
- Avg % Edit (TTR [2]): 81.80%
- Avg % Insert (TTR [2]): 77.15%
- Max Editing (TTR [3]): 98.69
- Liver editing, dose response (human TTR sequence; [4]): A dose response for both editing and serum TTR levels was evident
- Liver editing, dose response (human TTR sequence; [6]): A dose response for both editing and serum TTR levels was evident

B5: G000481: TTR sgRNA modified sequence, Human, SEQ ID No. 88; guide sequence of CR003345 (nucleic acid)
guide: mU*mC*mU*rArGrArArCrUrUrUrGrArCrCrArUrCrArGrGrUrUrUrUrArGrAmGmCmUmAmGmAmAmAmUmAmGmCrArArGrUrUrArArArArUrArArGrGrCrUrArGrUrCrCrGrUrUrArUrCrAmAmCmUmUmGmAmAmAmAmAmGmUmGmGmCmAmCmCmGmAmGmUmCmGmGmUmGmCmU*mU*mU*mU
- Max Editing (TTR [1]): 95.07
- Avg % Deletion (TTR [2]): 19.43%
- Avg % Edit (TTR [2]): 46.90%
- Avg % Insert (TTR [2]): 27.77%
- Max Editing (TTR [3]): 87.05
- Liver editing, dose response (human TTR sequence; [5]): A dose response for both editing and serum TTR levels was evident
- Liver editing, dose response (human TTR sequence; [6]): A dose response for both editing and serum TTR levels was evident

From US11795460B2, “Compositions and methods for TTR gene editing and treating ATTR amyloidosis” (Intellia Therapeutics, Inc., priority 2017, dated 2023)
